The values below come from US20150337053A1.

One may read the Kd as the equilibrium constant for the complex coming apart.

In test [1] the target is human FcγRIIa (Example 1, allotype not stated) (human) (UniProt P12318). Kind of test: SPR (Biacore 3000), His-tagged receptor captured on anti-His IgG, antibody injected; steady state fit.
Test [2] has as its target human FcγRIIIa (Example 1) (human) (UniProt P08637). The description is as above.
In test [3] the target is human FcγRI (human) (UniProt P12314). The test is described as above.
Chain of human FcγRI (human) (P12314 16-288 limits assumed): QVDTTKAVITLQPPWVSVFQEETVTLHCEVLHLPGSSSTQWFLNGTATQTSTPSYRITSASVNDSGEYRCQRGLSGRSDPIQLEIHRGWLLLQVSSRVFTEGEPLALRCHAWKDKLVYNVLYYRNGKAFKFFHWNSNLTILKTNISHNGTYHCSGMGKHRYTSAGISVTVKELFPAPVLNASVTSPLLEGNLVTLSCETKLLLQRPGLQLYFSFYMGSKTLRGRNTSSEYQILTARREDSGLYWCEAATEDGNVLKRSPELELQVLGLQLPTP
Test [4] deals with human FcγRIIIa (Example 1) (human) (UniProt P08637). The test can be described thus: SPR (Biacore 3000), His-tagged receptor captured on anti-His IgG, antibody injected; 1:1 kinetic fit. Background: Surface plasmon resonance follows binding to a sensor surface in real time, without labels.
Chain of human FcγRIIIa (Example 1) (human) (P08637 17-208 F176V limits assumed): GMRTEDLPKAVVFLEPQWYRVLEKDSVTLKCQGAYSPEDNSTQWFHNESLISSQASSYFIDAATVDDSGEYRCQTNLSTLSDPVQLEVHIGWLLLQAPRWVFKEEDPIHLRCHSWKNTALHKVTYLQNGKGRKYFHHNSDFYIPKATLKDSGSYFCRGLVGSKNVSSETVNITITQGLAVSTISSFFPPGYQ
In test [5] the target is human FcγRI (human) (UniProt P12314). Described as above.

Where only a bound is given, the exact number is not on record here.

Chain of human FcγRIIa (Example 1, allotype not stated) (human) (P12318 36-218 limits assumed): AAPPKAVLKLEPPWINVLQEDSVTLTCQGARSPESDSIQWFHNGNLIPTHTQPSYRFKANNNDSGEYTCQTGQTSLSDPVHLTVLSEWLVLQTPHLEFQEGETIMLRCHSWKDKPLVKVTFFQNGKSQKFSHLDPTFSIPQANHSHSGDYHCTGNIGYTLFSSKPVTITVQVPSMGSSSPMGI

With “huIgG2c4d (V234A, G237A, P238S, H268A, V309L, A330S, P331S) (antibody)”, the Kd in test [1] is greater than 170 µM; in test [2], greater than 95 µM; in test [3] it was greater than 210 µM.
On to “huIgG2m4 (H268Q, V309L, A330S, P331S) (antibody)”, for which the equilibrium dissociation constant (Kd) is 2.7 µM in test [1], 95 µM in test [2] and 210 µM in test [3].
For “huIgG2c4b (V234A, G237A, H268Q, V309L, A330S, P331S) (antibody)”, in that order: 170 µM, greater than 95 µM and 38 µM.
“huIgG2c4a (H268A, V309L, A330S, P331S) (antibody)”: the equilibrium dissociation constant (Kd) in test [1] amounted to 2.2 µM; in test [2], 85 µM; in test [3] it was 160 µM.
For “huIgG2c4e (P233S, V234A, G237A, P238S, H268A, V309L, A330S, P331S) (antibody)”, in that order: greater than 170 µM, greater than 95 µM and greater than 210 µM.
For “huIgG2 (wild type human IgG2 isotype, anti-Her2/neu construct) (antibody)”, in that order: 1 µM, 41 µM and 120 µM.
On the same counts, the results for “huIgG4 Ala-Ala, Ser-Pro (S228P, F234A, L235A) (antibody)” are 150 µM, 55 µM and 15 µM.
For the substance “huIgG2c4c (V234A, G237A, H268A, V309L, A330S, P331S) (antibody)”, the Kd in test [1] was 19 µM; in test [4], 0.64 µM; in test [5], 0.044 µM.
For the substance “huIgG1 (wild type human IgG1 isotype, anti-Her2/neu construct) (antibody)”, the Kd in test [1] was 0.7 µM; in test [5], 0.013 µM.
As to “huIgG1-Ag (aglycosylated IgG1, N297A) (antibody)”, the figures for the equilibrium dissociation constant (Kd) in test [1], in test [2] and in test [3] were greater than 170 µM, greater than 95 µM and 3.7 µM, respectively.
